Experimental data: the supplement of paper PMC10126150
± gives the standard deviation of the averaged measurements.
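Also: ATP exposure 15 min at 22 °C before imaging.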

These sequences were tested on ATP (assay: switch fluorescence ratio, 500 uM ATP over buffer (Cy3 cluster intensity, sum of 5 cycles each) (fold (ratio)); higher = stronger signal-on switching upon ATP binding; sequences stand for … in TCGTCGGCAGCGTCAGATGTGTATAAGAGACAGTTTTTTTTTTTTTTTTTTTTTTTTT…TC). Conditions: aptamer strand: ATP DNA aptamer (quencher-CACCTGGGGGAGTATTGCGGAGGAAGG + anchor), 100 nM annealed; ATP concentration: 500 uM.
Procedure, shortened: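 Between each of five buffer/ATP cycles, the flow-cell was stripped with NaOH and re-annealed. Each cycle imaged Cy3-labelled switching-strand clusters, annealed to 100 nM quencher-labelled ATP aptamer on a modified Illumina MiSeq flow-cell, first in selection buffer and then after 15 min with 500 uM ATP at 22 °C. The fluorescence ratio is summed target-cycle over summed buffer-cycle Cy3 intensity per cluster, averaged per switch-domain sequence, with clusters outside 100-1000 RFU excluded.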
AAAAAAAACC showed a switch fluorescence ratio of 1.4 ± 0.33. AAAAAAAATG showed a switch fluorescence ratio of 0.9991 ± 0.0042. Work on AAAAAAATGG yielded a switch fluorescence ratio of 1.01 ± 0.041. For AAAAAAATTG, the switch fluorescence ratio was 1 ± 0.017. AAAAAACGTA showed a switch fluorescence ratio of 1.08 ± 0.1. Work on AAAAAAGAAG yielded a switch fluorescence ratio of 1.01 ± 0.021. AAAAACGTAA gave a switch fluorescence ratio of 1.1 ± 0.061. For AAAAAGATTG, the switch fluorescence ratio was 1.06 ± 0.08. Work on AAAAAGGGAA yielded a switch fluorescence ratio of 0.986 ± 0.02. Sequence AAAAAGGGCC has a switch fluorescence ratio of 1.009 ± 0.0089. For AAAAATAGTG, the switch fluorescence ratio was 1.036 ± 0.0098. AAAAATGGGA was tested, and the switch fluorescence ratio was 0.962 ± 0.044. With AAAAATGTCC the switch fluorescence ratio was 1.07 ± 0.03. In the case of AAAAATTATT, the switch fluorescence ratio is reported as 1.006 ± 0.0065. With AAAAATTCTG the switch fluorescence ratio was 1.02 ± 0.014. Sequence AAAAATTTAG has a switch fluorescence ratio of 0.994 ± 0.034. For AAAACAAGGG, the switch fluorescence ratio was 1.01 ± 0.012. AAAACACTGG gave a switch fluorescence ratio of 1.06 ± 0.053. AAAACCGAAA was tested, and the switch fluorescence ratio was 1.11 ± 0.1. Work on AAAACCGGGA yielded a switch fluorescence ratio of 1.32 ± 0.52. Sequence AAAACCGTGT has a switch fluorescence ratio of 1.05 ± 0.04. With AAAACGGCTC the switch fluorescence ratio was 1.01 ± 0.0097. For AAAACTTTTA, the switch fluorescence ratio was 1.02 ± 0.04. AAAAGAAAAG showed a switch fluorescence ratio of 1.01 ± 0.051. AAAAGAACGC was tested, and the switch fluorescence ratio was 1.05 ± 0.097. Work on AAAAGAAGCA yielded a switch fluorescence ratio of 0.948 ± 0.026. AAAAGAATAT gave a switch fluorescence ratio of 1 ± 0.019. In the case of AAAAGAATCG, the switch fluorescence ratio is reported as 0.996 ± 0.049. AAAAGAGAAG was tested, and the switch fluorescence ratio was 1 ± 0.011. Sequence AAAAGAGGCA has a switch fluorescence ratio of 1.02 ± 0.025. In the case of AAAAGAGGGT, the switch fluorescence ratio is reported as 1.03 ± 0.048. With AAAAGAGGTT the switch fluorescence ratio was 0.9996 ± 0.0072. Work on AAAAGAGTAT yielded a switch fluorescence ratio of 1 ± 0.016. With AAAAGATTTT the switch fluorescence ratio was 1.06 ± 0.14. In the case of AAAAGCGCGG, the switch fluorescence ratio is reported as 1.13 ± 0.074. In the case of AAAAGCTCCG, the switch fluorescence ratio is reported as 1.05 ± 0.033. For AAAAGCTGGG, the switch fluorescence ratio was 1.02 ± 0.051. AAAAGGGA was tested, and the switch fluorescence ratio was 0.982 ± 0.046. AAAAGGGACG was tested, and the switch fluorescence ratio was 1.05 ± 0.12. Work on AAAAGGGCGG yielded a switch fluorescence ratio of 1.01 ± 0.023. Sequence AAAAGGGCGT has a switch fluorescence ratio of 0.9944 ± 0.0066. In the case of AAAAGGTTGG, the switch fluorescence ratio is reported as 0.997 ± 0.015. Sequence AAAAGGTTTG has a switch fluorescence ratio of 1.022 ± 0.0081. AAAAGTAAAA gave a switch fluorescence ratio of 1.03 ± 0.061. AAAAGTCAAT gave a switch fluorescence ratio of 1.004 ± 0.0089. AAAAGTCAGT showed a switch fluorescence ratio of 0.988 ± 0.053. For AAAAGTCGCT, the switch fluorescence ratio was 1.03 ± 0.025. AAAAGTCGGC gave a switch fluorescence ratio of 1.04 ± 0.057. AAAAGTTCGT gave a switch fluorescence ratio of 0.983 ± 0.024. AAAAGTTGTA showed a switch fluorescence ratio of 1.01 ± 0.027. Sequence AAAATAAAG has a switch fluorescence ratio of 0.947 ± 0.077. In the case of AAAATAAAGG, the switch fluorescence ratio is reported as 0.976 ± 0.023. AAAATATGCT gave a switch fluorescence ratio of 1 ± 0.049. In the case of AAAATCAAAT, the switch fluorescence ratio is reported as 1.02 ± 0.019. AAAATCAGCG showed a switch fluorescence ratio of 1 ± 0.051. Work on AAAATCCTTG yielded a switch fluorescence ratio of 1.01 ± 0.04. AAAATCGGTG was tested, and the switch fluorescence ratio was 1.01 ± 0.068. In the case of AAAATCTAGT, the switch fluorescence ratio is reported as 1.014 ± 0.0081. AAAATCTGGT showed a switch fluorescence ratio of 1.03 ± 0.015. In the case of AAAATGAGCC, the switch fluorescence ratio is reported as 1.036 ± 0.00036. AAAATGATCG was tested, and the switch fluorescence ratio was 1.006 ± 0.0074. AAAATGGATT showed a switch fluorescence ratio of 0.995 ± 0.055. Sequence AAAATGGTCA has a switch fluorescence ratio of 1.0102 ± 0.00092. AAAATGTAGA was tested, and the switch fluorescence ratio was 0.9919 ± 0.0016. Work on AAAATTAAGA yielded a switch fluorescence ratio of 0.982 ± 0.025. Work on AAAATTAAGC yielded a switch fluorescence ratio of 1.01 ± 0.051. AAAATTCAAG was tested, and the switch fluorescence ratio was 0.983 ± 0.016. AAAATTCAGG showed a switch fluorescence ratio of 1.02 ± 0.011. In the case of AAAATTCTGC, the switch fluorescence ratio is reported as 1.06 ± 0.022. AAAATTGGGC was tested, and the switch fluorescence ratio was 1.08 ± 0.02. AAAATTGGGG gave a switch fluorescence ratio of 1.02 ± 0.039. In the case of AAAATTTATG, the switch fluorescence ratio is reported as 1.01 ± 0.038. AAACAGATAA gave a switch fluorescence ratio of 1.04 ± 0.084. AAACAGCCGG showed a switch fluorescence ratio of 1.03 ± 0.0074. AAACAGCTCA showed a switch fluorescence ratio of 0.994 ± 0.027. AAACCAGCCC was tested, and the switch fluorescence ratio was 1.21 ± 0.21.
